In patent US20200095324A1 (POTENZA THERAPEUTICS, published 2020):

T1: human TIGIT (human, UniProt Q495A1 22-141)
T1 construct: Expressed in HEK-293 cells and secreted as soluble protein; also called hTIGIT; monomeric wild type human TIGIT; not shown: His tag (purified on Ni-NTA, called 'human TIGIT HIS')
T1 sequence: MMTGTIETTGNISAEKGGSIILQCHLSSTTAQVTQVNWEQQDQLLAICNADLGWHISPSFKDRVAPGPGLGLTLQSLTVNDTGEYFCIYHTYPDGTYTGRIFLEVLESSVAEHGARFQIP


Tests used:
[1] = target: T1, human TIGIT; assay: BLI (Octet), antibody captured on anti-human Fc sensors
Description: (§1) To identify the epitope for MAB10 binding to human TIGIT, 18 alanine single point mutations were made. Proteins were expressed in HEK-293 cells, secreted as soluble protein, purified on Ni-NTA resin, and characterized by SDS-PAGE. Binding was assessed by Bio-Layer Interferometry (BLI) using the Octet platform. MAB10 was captured on anti-human Fc sensors, washed, and exposed to either monomeric wild type human TIGIT or to one of a selection of point mutants.
To identify the epitope for MAB2, MAB15, and MAB21 binding to human TIGIT, binding to 7 alanine single point mutations was assessed using BLI as described in the preceding paragraph.

[2] = target: T1, human TIGIT; assay: BLI (Octet), MAB10 captured on anti-human Fc sensors, monomeric wild type human TIGIT in solution
Description: as §1

[3] = target: T1, human TIGIT; assay: complex formation, size exclusion chromatography and crystallisation
Description: The binding epitope of MAB10 was also identified through crystallographic studies. MAB10 Fab was complexed with human TIGIT, purified by size exclusion chromatography, and concentrated to 10 mg/ml. Crystals were grown out of 14% PEG4000, 0.1M MES pH 6, 10 mM β-nicotinamide adenine dinucleotide hydrate, 0.5% n-dodecyl-β-D-maltoside. X-ray data were collected at Argonne National Laboratories (GM/CA CAT 23ID-D) and processed using CCP4 (Collaborative Computational Project No. 4, Software for Macromolecular X-Ray Crystallography) and Phenix (Python-based Hierarchical ENvironment for Integrated Xtallography). TIGIT residues within a contact distance of 3.8 Å from the heavy and light chain were considered part of the binding epitope and include T55, Q56, L65, D72, L73, H76, I77, S78, P79 and H111.

Binder	binding result [1]	further results
MAB15 (antibody, human IgG4 S228P, kappa, V domains shown, also called MAB15-IgG4) VH: QVQLVQSGAEVKKPGASVKVSCKASGYTFREYYMHWVRQAPGQGLEWMGIINPSIGLTSYARKFQGRVTMTRDTSTSTVYMELSSLRSEDTAVYYCARGGRTTWIGAFDIWGQGTMVTVSS VL: EIVMTQSPATLSVSPGERATLSCRASQSVSSNLAWYQQKPGQAPRLLIYGASTRATGIPARFSGSGSGTEFTLTISSLQSEDFAVYYCQQYVVWPPLTFGGGTKVEIKR	binds	
MAB2 (antibody, human IgG4 S228P, kappa, V domains shown, also called MAB2-IgG4) VH: QLQLQESGPGLVKPSETLSLTCTVSGGSISSSKYYWGWIRQPPGKGLEWIGSIYYSGSTFYNPSLKSRVTISVDTSKNQFSLKLSSVTAADTAVYYCARDANYYGSAWAFDPWGQGTLVTVSS VL: EIVLTQSPATLSLSPGERATLSCRASQSVSSYLAWYQQKPGQAPRLLIYDASNRATGIPARFSGSGSGTDFTLTISSLEPEDFAVYYCQQHFNLPTFGGGTKVEIKR	binds	
MAB10 (antibody, human IgG4 S228P, kappa, V domains shown, also called MAB10-IgG4; anti-TIGIT antibody MAB10) VH: QVQLQESGPGLVKPSQTLSLTCTVSGGSIESGLYYWGWIRQPPGKGLEWIGSIYYSGSTYYNPSLKSRATISVDTSKNQFSLKLSSVTAADTAVYYCARDGVLALNKRSFDIWGQGTMVTVSS VL: EIVLTQSPGTLSLSPGERATLSCRASQSVSSSYLAWYQQKPGQAPRLLIYGASSRATGIPDRFSGSGSGTDFTLTISRLEPEDFAVYYCQQHTVRPPLTFGGGTKVEIKR		binding result [2]: binds
MAB10 Fab (Fab, V domains shown, Fab of MAB10 used for crystallography) VH: QVQLQESGPGLVKPSQTLSLTCTVSGGSIESGLYYWGWIRQPPGKGLEWIGSIYYSGSTYYNPSLKSRATISVDTSKNQFSLKLSSVTAADTAVYYCARDGVLALNKRSFDIWGQGTMVTVSS VL: EIVLTQSPGTLSLSPGERATLSCRASQSVSSSYLAWYQQKPGQAPRLLIYGASSRATGIPDRFSGSGSGTDFTLTISRLEPEDFAVYYCQQHTVRPPLTFGGGTKVEIK		binding result [3]: binds
MAB21 (antibody, human IgG4 S228P, kappa, V domains shown, also called MAB21-IgG4) VH: QVQLVQSGAEVKKPGASVKVSCKASGYTFTSHYMGWVRQAPGQGLEWMGIINPSMGATSYTQKFRGRVTMTRDTSTSTVYMELSSLRSEDTAVYYCARLHVSGSYYPAYLDYWGQGTMVTVSS VL: EIVMTQSPATLSVSPGERATLSCRASQSVSSNLAWYQQKPGQAPRHLIYGASTRATGIPARFSGSGSGTEFTLTISSLQSEDFAVYYCQQYIVFPWTFGGGTKVEIKR	binds	
